Test results as given in the nanobody polyreactivity screen of Harvey et al. (2022).

Test: yeast display, Sf9 membrane polyspecificity reagent, FACS + sequencing; frameworks hold sequencing errors
In short: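 Using colony PCR, genes from sorted yeast display clones were amplified, then sequenced on MiSeq at 2 × 250 and filtered by CDR length. The clones had been stained with 10% biotinylated, detergent-solubilized Sf9 membrane reagent for 1 hour at 4 °C and sorted by FACS into low and high (top ~1%) gates on anti-HA and streptavidin fluorescence. Polyreactivity labels come from the gate of origin.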

Row | Sequence | polyreactivity (PSR sort gate)
1 | QVQLVESGGGLVQAGGSLRLSCAASGLTFGRNAMGWYRQAPGKERELVAAISRSGGRTSYADSVKGRFTISRDNAKNTVYLQMNSLKPEDTAVYYCAARSDVYTHDYWGQGTQVTVSS | high polyreactivity
2 | QVQLVESGGGLVQAGGSLRISCAASGRIFLRNDMGWYRQAPGKERELVAGISSDGSTYYADSVKGRFTISRDNAKNTVYLQMNSLKPEDTAVYYCAAERWGNPTDYQFWRPYDYWGQGTQVTVSS | low polyreactivity
3 | QVQLVESGGGLVQAGGSLRVSCAASGRTFGVYTMGWYRLAPGKERELVAAITWGGGRTYYADSVKGRFTISRDNAKNTVYLHMNSLKPEDTAVYYRAARVRGQGSYHFGYWGQGTQVTVSS | high polyreactivity
4 | QVQLVESGGGLVQAGGSLRLSCAASGRIFRYNAMGWYRQAPGKERELVAAISGTGDRTYYADSVKGRFTISRDNAKNTVYLQMNSLKPEDTAVYYCAARGLFFRNRYGYWGQGTQVTVSS | high polyreactivity
5 | QLQLVESGGGLLQAGGSLRLSCAAPGSTFAPNTMGWNRQPPGKARELVARITSSDGSTSYADSVKGRFTISRDNAKNTVYLQMNSLKPEDTAVYYCAAQYSYSMDYWGQGTQVTVSS | low polyreactivity
6 | QVQLVESGGGLVQAGGSLRLSCAASGSILEIYAMGWYRQAPGKEREFVASISWDVSSTYYADSVKGRFTISRDNAKNTVYLQMNSLKPEDTAVYYCATSLVWGLYDWYYDLSAAFDYWGQGTQVTVSS | low polyreactivity
7 | QVQLVESGGGLVQAGGSLRLSCAASGFIFYLYAMGWYRPAPGKERELVAAISRRGGSTYYADSVKGRFTISRDNAKNTVYLQMNSLKPEDTAVYYCAAYGDDGRDYWGQGTQVTVSS | high polyreactivity
8 | QVQLEESGGGIVQAGGSLRLSCAASGRTFKLNAMGLYRQAPGKERELVAAISRNGGSTYYADSVKGRFTISRDNAKNTVFLQMNSLKPEDTAVYYCAAVRHGVSLAGYYWGQGTQVTVSS | high polyreactivity
9 | QVQLVESGGGLVQAGGSLRLSCAASGGTFRGYAMGWYRQAPGKERELVAAISRGTSTNYADSVKGRFTISRDNAKNTVYLHLNSLKPEDTAVYYCNAAKRGWYYDYYYWGQGTQVTVSS | high polyreactivity
10 | QVQLVESGGGLVQAGGSLRLSCAASGSTFWFYAMGWYRQAPGKERELVAVISNSGSTYYADSVKGRFTISRDNAKNTVYLQMNSLKPEDTAVYYCNRYYPVPYDYWGQGTQVTVSS | low polyreactivity
11 | QVQLVESGGGLVQAGGSLRLSCAASGITFGPYAMGWYRQAPGKERELVAAISSGGRTNYADSVKGRFTISRDNAKNTVYLQMNSLKPEDTAVYYCAARFAYFREYGTYYYWGQGTQVTVSS | high polyreactivity
12 | QVQLVESGGGLVQAGGSLRLSCAASGRIFRSYAMGWYRQAPGKERELVAAITGSTGSTSYADSVKGRFTISRDNAKNTVYLQMNSLKPEDTAGYYCNAEYSSGYGQSHTYFYEYDYWGHGTQVTVSS | low polyreactivity
13 | QVQLVESGGGLVQAGGILRLSCAAYGSIFPHNAMGWYRQAPGKERELVASITSRGGITYYADSVKGRFTISRDNAKNTGYLQMNSLIPEDTAVYYCAGDLYIYPYDYWGQGTQVTVSS | low polyreactivity
14 | QVQLQESGGGLVQAGGSLRLSCAASGYISTFSSEMGWYRQAPGKERELVASIAPGCTTSYADSVKGRFTISRDNAKNTVYLQMHRLKPEDTAVYYCAVDYTVPASFGYWGQGTQVTVSS | high polyreactivity
15 | QVQLVESGAGLVQAGGILRLSCAASGRIIAYYAMGWYRQAPGKERELVAAINWSGGRTYYADSVKGRFTISRDNAKNTVYLQMNSLKPEDTAVYYCAARVSYGYDYWGQGTQVTVSS | high polyreactivity
16 | QVQLVASGGGLVQAGGSLRLSCAASGFTFYYYAMGWYRKAPGKERELVAGISGRGGTTYYADSVKGRFTISRDNAKNTFYLQLNSLKPEDTAVYDCAARKVRARSKFEYWGQGNQVTVSS | high polyreactivity
17 | QVQLVESGGGLVQAGGSLRLSCAASGITFVDYDMGWYRQAPGKERELVAAISWSGGSTYYADSVKGRFTISRDNAKNTVYLQMNSLKPEDTAVYYFAAEVIWWVREYYYWGQGTQVTVSS | low polyreactivity
18 | QVQLEESGGGLVQAGGSLRLSCAASGRTFYVYTMGWYRQAPRKERELFAGISYSGGSTYYADSVKGRFTISRDTAKKTVYLQKYSLKPEDTAVYYCNAELYFPYFDGKTRHGGYWGQGSQVTVSS | low polyreactivity
19 | QVQLVESGGGLVQAGGSLRLSCAASGSISYPKAMGWYRQAPGKERELVAAINSGDRTNYADSVKGRFTISRDNAKNTVYLQMNSLKPEDTAVYYCARRRYFLWGGYGYWGQGTQVTVSS | low polyreactivity
20 | QVQLVESGGGLVQAGGSLRLSCAASGFTFGENAMGWYRQAPWKERELVAAITSGDGTSYADSVKGRFTISRDNAKNTVYLQMNSLKPEVTAVYDCAADGGDELYYSTYDYWGQGTQVTVSS | low polyreactivity
21 | QVQLVESGGGLVQAGGSLRLSCAASGSNFDDYVMGWYRQAPGKERELVAGINSRGTSTDYADSVKGRFTISRDNAQNTVYLQMNSLKPEDTAVYYCAADDSHGYDYWGQGTQVTVSS | low polyreactivity
22 | QVQLVESGGGLVQAGGSLRLICAASGYTFSDYAMGLYRQAPGKERELVAVISQSGGSTYYADSVKGRFTISRDNAKNTVYLQMNSLKPEDTAVYDCNVYPSRRRAVGESERYYWGQGTQVTVSS | high polyreactivity

Row | Sequence | polyreactivity (PSR sort gate)
23 | QVQLEESGGGLVQAGGSLSLSCAASGRNMPYNVMAWYIQATGKEREFVAAITGSGGDTYYADSVKGRFTISRDNAKNTVYLQMNSLKPEDTAVYYCAAAPYIGCSFGQTPGSGYWGQGTQVTVSS | low polyreactivity
24 | QVQLVESGGGLVQAGGSLRLSCAASGYTFYENAMGWYRQAPGKERELVAAITSDGSTYYADSVKGRFTISRDNAKNTVYLQMNSLKPEDTAVYYCAVDEAPPELVYWFFTYYYGGQGTQVTVSS | low polyreactivity
25 | QVQLVESGGGLVPAGGSLRFSCAASGMTFFVNDRGSYRQAPGKERELLAVISFTGDSTFYADSVKGRFTISRDKAQNTVSLQMHSLKPEETAVYYSAADFRRGFSKYSYYLYFDFDYWGQGTQVTVSS | low polyreactivity
26 | QVQLVESGGGLVHAVGSLRLSCAASGRTFISYAMGWYRQAPGKERELVAAISKYGGRTYYADSVKGRFTISRDNAKNTVYLQKISLKPEDTAVYYCAAVKTYLDYSSTSYDYWGQGTQVTVSS | high polyreactivity
27 | QVQLEESGGGLVQAGGSLRLSCAASGSTFVYYAMGWYRQSPGKERELVAAISRGGGSTYYADSVKGRFTISRDNAKNTVYLQMNSLKPEDTAVYYCAAVAGYRYYWGQGTQVTVSS | high polyreactivity
28 | QVQLVESGGGLVQAGGSLRLSCAASGSTFWYYVMGWYRQAPGKERELVAAISIVGSTYYADSVKGRFTISRDNAKNTVYLQMNSLKPEDTAVYYFNAGYFRGSNAIKVRLTYDHWGQGTQVTVSS | low polyreactivity
29 | QVQLVESGGGLVQAGGSIRLSCAASGRIFIYNVMGWYRQAPGKERELVATISTGGTTNYADSVKGRFTISRDNAKNTVYLQMNSLKPEETAVYYCIRGSGYWYLPAVKYDHWGQGTQVTVSS | low polyreactivity
30 | QVQLVESGGGLVQAGGSLRLSCAASGRTFWRYAMGWYRQAPWKERELVARISWRGGSTNYADSVKGRFTISRDNAKNTVYLQMNSLKPEDTAVYYFNAEVLNYLVFGYQLGYDYWGQGTQVTVSS | low polyreactivity
31 | QVQLVESGGGLVQAGGSLRIICAASGRIFSKYARGWYRQAPGKERELVAAISSRGGNTYYADSVKGRFTISRDNAKNTVYLQMTSLKPEDTAVYFCAAGYYYTGYEYDYWGQGTQVTVSS | high polyreactivity
32 | QVQLVESGGGLVQAGGSLRLSCAASGFIIGYYAMGWYRQAPGKERELVASIRRGGSTYYADSVKGRFTISRDNAKNTVYLQMNSLKPEDTAVYYCAVPYSRFSAFRRWVKYDYWGQGTQVTVSS | high polyreactivity
33 | QVQLVESGGGLVQAGGSLRLSCAASGRIFAAYAMGWYRQAPGKERELVASISRGGSTNYADSVKGRFTISRDNAKNTVYLQMNSLKPEDTAVYYCAARQGSTYYAYYYWGQGTQVTVSS | high polyreactivity
34 | QVQLVESGGGLVQAGGSLRLSCAASRSIFEANDMGWYRQAQGKERELVAAIDANTGSTYYADSVKGRFTISRDNAKNTVYLQMNRLKPEDTAVYYCNAQVYLHTAYDYWGQGTQVTVSS | low polyreactivity
35 | QVQLEESGGGLVQAGGSLRLSCAASGSIFVPYAMGWYRQAPGKERELVASISWRGGSTYYADSVKGRFTISRDNAKNTVYLQMNSLKPEDTAVYYCAAQKRGSPGYRRDYWGQGTQVTVSS | high polyreactivity
36 | QVQLVESGGGLVQAGGSLRLSCAASGRTFEQNVMGWYRQAPGTERELVAAITTGGSTNYADSVKGRFTISRDNAKNTVYLQMNSLKPEDTAVYYCAADRYLGGDYDYWGQGTQVTVSS | low polyreactivity
37 | QVQLVESGGGLVQAVGSLRLSCAASGSIFDVNAMGWYRQAPGKERELVAAISQRGTRTYYADSVKGRFTISRDNAKNTVYLQMNSLKPEDTAVYYCNRGGWRQYDSWGQGTQVTVSS | high polyreactivity
38 | QDQLVESGGGLGQAGGTLRLSCAASGNTFTFNTMGWHRQEPGKEREVVAVISRSGGSTYYSDSVKGRITISRDNAKNTVYLQMNSLKPEDTAVYYCAAQGYWYGFVPYDYWGQGTQVTVSS | high polyreactivity
39 | QVQLVESGGGLVQAGGSLRLSCAASGSTLRYYAMGWYRQAPGKERELVARIRSNGGSTYYADSVKGRFTISRDNAKNTVYLQMNSLKPEDSAVYYCAARTYRGQYYTGFGFGYWGQGTQVTVSS | high polyreactivity
40 | QDQLVESGGGLVQAGGSLRLSCAASGFTFGSYAMGWYRQAPGKERELVAAISSNGGNTYYADSVKGRFTISRDNAKNTVYLQMNSLKPEDTAVYYCAARYPSGTRKWYGYWGQGTQVTVSS | high polyreactivity
41 | QVQLVESGGGLVQAGGSLRLSCAASGFTFYNNAMGWYRPAPGKERELVAVITSNGGRTYYADSVKGRFTISRDNAKNTVYLQMNSVKPEDTAVYYCAKDYKALYLYHYRISGGDVDYWGQGTQVTVSS | low polyreactivity
42 | QVQLVESGGGLVPAGGSLRLSCAASGSIFGKNAMGSYRQAPGNERELVAAITRRGGSTYYADSVKGRFTISRDNAKNTVYLQMNSLKAEDTAVYYCAAVSHYPAGYDYWGQGTQVTVSS | high polyreactivity
43 | QVQLVESGGGLVQAGGSLRLSCAASGSTFVGYARGWYRQEPGNETELVAAISGSGTSTYYADSVKGRFTISLDNAKNTVYLQMNSLKPEDTAVYYCKADPIFVYSSYNYWGQGTQVTVSS | low polyreactivity
